Substrate: Nc1ncnc2c1ncn2[C@@H]1O[C@H](COP(=O)(O)OP(=O)(O)OP(=O)(O)O)[C@@H](O)[C@H]1O
Assay: purified protein
Assay type: biochemical, Archaeoglobus fulgidus
Settings: Mg2+ ATP binding pocket

B1: afRio1 (Rio1 kinase) (Archaeoglobus fulgidus DSM 4304) (protein)
chain: MKDLKKIESYLDKLRIKEKDGEERKIYAEVLDGRTLKTLYKLSAKGYITAMGGVISTGKEANVFYADGVFDGKPVAMAVKIYRIETSEFDKMDEYLYGDERFDMRRISPKEKVFIWTEKEFRNLERAKEAGVSVPQPYTYMKNVLLMEFIGEDELPAPTLVELGRELKELDVEGIFNDVVENVKRLYQEAELVHADLSEYNIMYIDKVYFIDMGQAVTLRHPMAESYLERDVRNIIRFFSKYGVKADFEEMLKEVKGE
notes: full-length
Km: 0.4 µM | Vmax: 0.000156 µmol/min
